Experimental findings from patent US20260139017A1, “COMPOSITIONS AND METHODS USING REELIN IN ALZHEIMER'S DISEASE” (The General Hospital Corporation, priority 2022, published 2026) are described below.

Data set [1] concerns pTau S396. Nature of the data set: Intraperitoneal mini-RELN in MAPT P301S Tau Tg mice, pTau S396 immunofluorescence. Type of data set: in vivo. As to conditions: 6 months old female MAPT P301S mice, intraperitoneal days 1-4, hippocampal and entorhinal regions, vs PBS. On the procedure: The effects of systemic delivery of mini-RELN peptides was evaluated in vivo. 6 months old female MAPT P301S Tau Tg mice were injected intraperitoneally on day 1 with 500 μL and on day 2-4 with 250 μL solutions of either vehicle (PBS) or mini-RELN peptides. On Day 5, mice were euthanized with saturating concentration CO2 gas and intracardially perfused with 4% PFA. Brains were subsequently harvested and used for histological analyses.
Immunofluorescence staining of murine brains was performed as follows. 24 hours post fixation with 4% PFA at 4° C., sagittal brain sections were obtained at 1 mm thickness using a stainless-steel brain matrix. The entorhinal-hippocampal section of each brain was chosen for Clarity using Binaree® Tissue Clearing™ Kit (HRTC-012) following the kit guidelines. Sections were incubated with pTauS396 primary antibody for 72 h followed by secondary antibody: Alexa 647, and DAPI for 1 h. Subsequently, sections were imaged using confocal SP8 microscope for quantification. Fourteen images were taken at 63× magnification per group. Fluorescence intensity of pTau was quantified automatically using Matlab (2021a). Otsu's thresholding method was used to get a mask of the image signal and then the mean intensity of the signal was computed.

The test system of data set [2] is pDAB1. Description: Trans-nasal (MIND) delivery of mini-RELN in mice, brain pDAB1 western blot. It counts as in vivo. An excerpt:
(§1) We used a MIND procure (trans nasal delivery using Minimally Invasive Nasal Depot (MIND), Padmakumar et al., J Control Release. 2021 Mar. 10; 331: 176-186) or intraperitoneal injection to administer miniRELN constructs into mice. MIND leverages the olfactory nerve to bypass the blood brain barrier. […] Using the MIND methodology provides one method of reaching the entorhinal cortex with minimal systemic exposure. […] (Jackson Laboratory) were housed under regular light/night cycle. All procedures were conducted under approved IACUC animal protocols. Prior to incision, the nasal region was shaved and cleaned using betadine and 70% alcohol and mouse subcutaneously injected with buprenorphine HCl and meloxicam (5 mg/kg). The nasal cavity was then opened using a scalped and nasal mucosa exposed using a microdrill. Once the mucosa was exposed, gel dispersion of either PBS or mini-RELN constructs (Innovagen) in 20% Pluronic (Sigma Aldrich) was subcutaneously delivered in the surgically-generated pocket. Mice were injected with meloxicam for 3 days prior euthanasia at day 4 to collect the brain tissue used for post-mortem analysis.
Western blotting was performed as follows. 20 ug protein homogenates were prepared under reducing and denaturing conditions using Laemmli buffer enriched with 10 mM DTT and 5 min boiling. Samples were electrophoretically separated in a 4-20% Gel at 90V and protein transferred to a PVDF membrane using iBlot™ 2 Dry Blotting System. The membrane was blocked using Intercept® (TBS) Blocking Buffer for 2 hours. We detected pDAB1 (Tyr232; 1:1000, rabbit, #3325 Cell signaling), and Beta actin (1:5000, mouse, #66009-1-Ig, Proteintech). Antibodies were diluted using Intercept® (TBS) Blocking Buffer and incubated overnight at 4C under gentle shaking. Prior secondary antibody incubation, membranes were washes 2 times using TBS-T for 10 minutes. As secondary antibodies we used IR Dye 800n CW Goat-anti-Rabbit (925-32211, Licor) and IR Dye 680 CW Goat-anti-Mouse (925-68070, Licor) both diluted 1:10000 in blocking buffer for 1 h at room temperature under gentle shaking. Membranes were washed three times with TBS-T prior IR detection using Odyssey imager. To quantify the results, each band was quantified using ImageJ and data expressed as pDAB1:βActin ratio normalized to the control.
On the technique in general: A western blot detects proteins with antibodies after separation by electrophoresis.

Data set [3] concerns pDAB1 (Tyr232). Nature of the data set: HRECs treated 5 minutes with recombinant mini-RELN, pDAB1 western blot. As to conditions: for pDAB1 levels: 5 minutes, 4 ug/mL recombinant protein. It counts as cell-based, human. An outline of the steps: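 Serum-starved (2 h) HRECs at passage 7 given recombinant mini-RELN constructs or mouse Reelin at 4 ug/mL for 5 min, then lysed. Western blot of 3.5 ug lysate for pDAB1 (Tyr232) with IR detection. Value is pDAB1:total protein band ratio normalized to control.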

A short description of data set [4]: Anti human IgG-Fc ELISA of hippocampus after trans-nasal mini-RELN. Particulars: 72 h post injection, vs PBS vehicle. Type of data set: in vivo, mice.
Description: as §1

Data set [5] concerns pDAB1. Nature of the data set: Immunofluorescence of cleared brain sections (Fc tag, pDAB1) after MIND delivery. It counts as in vivo, mice. On the procedure: 24 or 72 hours after Mini Reelin (225S) or vehicle administration, mice were intracardially perfused with 4% PFA in PBS and brains were harvested and incubated in 4% PFA at 4° C. for 24 hours. Sagittal sections were obtained at 1 mm thickness using a stainless-steel brain matrix. The entorhinal-hippocampal section of each brain was chosen for Clarity using Binaree® Tissue Clearing™ Kit (HRTC-012) following the kit guidelines. Sections were incubated with IgG-Fc tag and pDAB1 primary antibodies for 72 h followed by secondary antibody: Alexa 488 and Alexa 647, and DAPI for 1 h. Subsequently, sections were imaged using confocal SP8 microscope for quantification. […] This is proof of effective drug delivery, target engagement, and targeted RELN signaling activation, in the hippocampal formation.

[6] abbreviates: WT male mice, 72 h post-trans-nasal delivery.

B1: RAP-FcIgG-CTRH3447R (protein)
chain: MYRMQLLSCIALSLALVTNSMAPRRVRSFLRGLPALLLLLLFLGPWPAASHGGKYSREKNQPKPSPKRESGEEFRMEKLNQLWEKAQRLHLPPVRLAELHADLKIQERDELAWKKLKLDGLDEDGEKEARLIRNLNVILAKYGLDGKKDARQVTSNSLSGTQEDGLDDPRLEKLWHKAKTSGKFSGEELDKLWREFLHHKEKVHEYNVLLETLSRTEEIHENVISPSDLSDIKGSVLHSRHTELKEKLRSINQGLDRLRRVSHQGYSTEAEFEEPRVIDLWDLAQSANLTDKELEAFREELKHFEAKIEKHNHYQKQLEIAHEKLRHAESVGDGERVSRSREKHALLEGRTKELGYTVKKHLQDLSGRISRARHNELTGGSGGNSAPLERKSSVECPPCPAPPVAGPSVFLFPPKPKDTLMISRTPEVTCVVVDVSHEDPEVQFNWYVDGVEVHNAKTKPREEQFNSTFRVVSVLTVVHQDWLNGKEYKCKVSNKGLPAPIEKTISKTKGQPREPQVYTLPPSREEMTKNQVSLTCLVKGFYPSDIAVEWESNGQPENNYKTTPPMLDSDGSFFLYSKLTVDKSRWQQGNVFSCSVMHEALHNHYTQKSLSLSPGARTGGGGSGGGGSSTRKQNYMMNFSRQHGLRRFYNRRRRSLRRYP
In the case of B1, the “pTau S396 fluorescence intensity” value in data set [1] was “decreased levels of pTau S396 signaling”. In data set [2] (setting [6]), the “pDAB1 levels in the hippocampus” value was “increased” and the “pDAB1 levels in the midbrain” value is on record as “increased”. In addition, in data set [3] (5 minutes treatment), the “efficacy at RELN signaling (pDAB1) relative to comparators” value was “more effective than controls”. For the same molecule, the pDAB1 levels result in data set [3] is “increased pDAB1 levels”.

B2: FcIgG-RAP-CTRH3447R (protein)
chain: MYRMQLLSCIALSLALVTNSAPLERKSSVECPPCPAPPVAGPSVFLFPPKPKDTLMISRTPEVTCVVVDVSHEDPEVQFNWYVDGVEVHNAKTKPREEQFNSTFRVVSVLTVVHQDWLNGKEYKCKVSNKGLPAPIEKTISKTKGQPREPQVYTLPPSREEMTKNQVSLTCLVKGFYPSDIAVEWESNGQPENNYKTTPPMLDSDGSFFLYSKLTVDKSRWQQGNVFSCSVMHEALHNHYTQKSLSLSPGARTGGGGSGGGGSMAPRRVRSFLRGLPALLLLLLFLGPWPAASHGGKYSREKNQPKPSPKRESGEEFRMEKLNQLWEKAQRLHLPPVRLAELHADLKIQERDELAWKKLKLDGLDEDGEKEARLIRNLNVILAKYGLDGKKDARQVTSNSLSGTQEDGLDDPRLEKLWHKAKTSGKFSGEELDKLWREFLHHKEKVHEYNVLLETLSRTEEIHENVISPSDLSDIKGSVLHSRHTELKEKLRSINQGLDRLRRVSHQGYSTEAEFEEPRVIDLWDLAQSANLTDKELEAFREELKHFEAKIEKHNHYQKQLEIAHEKLRHAESVGDGERVSRSREKHALLEGRTKELGYTVKKHLQDLSGRISRARHNELTGGSGGSTRKQNYMMNFSRQHGLRRFYNRRRRSLRRYP
Take B2: the “pDAB1 levels in the entorhinal cortex” value in data set [2] (Tau P301S mice, 72 h post-trans nasal delivery, vs PBS) is “increased”. Further, the pDAB1 levels entry in data set [3] is recorded as “increased pDAB1 levels”. Also, in data set [4], the “anti human IgG-Fc ELISA optical density in the hippocampus” value is “trended to be increased”. Besides, the “presence of peptide in the brain (Fc immunofluorescence)” value in data set [5] (entorhinal-hippocampal section, 24 or 72 hours after MIND) is “presence of the miniRELN peptide in the brain”. The “RELN signaling measured via pDab1 (immunofluorescence)” value in data set [5] (wildtype animals, trans nasal, 24 hours, vs pluronic vehicle) is “increased levels of RELN signaling”.
